Reference: PMC11343739

Legend:
[1] = WB of endogenous EP300, 786-O and Caki-1; conditions: glycan lost; control: untreated
[2] = nuclear/cytoplasmic fractionation WB and IF; conditions: glycan lost; control: Flag-EP300-WT
[3] = anti-Flag WB of cell fractions; conditions: glycan lost; control: Flag-EP300-WT
[4] = CHX chase, WB, 786-O cells; conditions: glycan lost; control: Flag-EP300-WT

Row | Substance | expression_or_secretion [1] | localisation_or_trafficking [2] | expression_or_secretion [3] | degradation_or_half_life [4]
1 | EP300: OSMI-1 | decreases |  |  | 
2 | EP300: S900A |  | no change | changes | decreases
